For assay [1], the target named is HLA-B*53:01. The assay is described as follows: IEDB peptide-MHC binding, purified MHC/competitive/fluorescence; ≥ and ≤ were set here for values at or beyond the usual limits of such assays. As to conditions: source organism: Monodelphis domestica.
Assay [2] addresses HLA-B*44:03. Described as above. The note with it: source organism: Monodelphis domestica.
Assay [3] has as its target HLA-B*37:01. The description is as above. The note with it: source organism: Monodelphis domestica.
In assay [4] the target is HLA-A*68:02. Described as above. As to conditions: source organism: Monodelphis domestica.
Assay [5] addresses HLA-B*40:02. The assay is described as above. The note with it: source organism: Monodelphis domestica.
The target of assay [6] is HLA-A*11:01. The description is as above. The note with it: source organism: Monodelphis domestica.
Assay [7] deals with HLA-A*24:02. The assay is described as above. The note with it: source organism: Monodelphis domestica.
For assay [8], the target named is HLA-B*18:01. The description is as above. The note with it: source organism: Monodelphis domestica.
The target in assay [9] is HLA-B*08:01. The assay is described as above. The note with it: source organism: Monodelphis domestica.
The target of assay [10] is HLA-B*58:01. Described as above. The note with it: source organism: Monodelphis domestica.
For assay [11], the target named is HLA-A*01:01. The description is as above. As to conditions: source organism: Monodelphis domestica.
Assay [12] deals with HLA-B*35:01. Described as above. As to conditions: source organism: Monodelphis domestica.
Assay [13] concerns the target HLA-B*07:02. Described as above. The note with it: source organism: Monodelphis domestica.
In assay [14] the target is HLA-A*02:01. Described as above. The note with it: source organism: Monodelphis domestica.
The target in assay [15] is HLA-A*29:02. The description is as above. The note with it: source organism: Monodelphis domestica.
Assay [16] addresses HLA-B*14:02. The description is as above. The note with it: source organism: Monodelphis domestica.
Assay [17] concerns the target HLA-A*31:01. Described as above. The note with it: source organism: Monodelphis domestica.
The target in assay [18] is HLA-A*25:01. The assay is described as above. As to conditions: source organism: Monodelphis domestica.
The target in assay [19] is HLA-A*03:01. The description is as above. As to conditions: source organism: Monodelphis domestica.
For assay [20], the target named is HLA-B*51:01. The description is as above. As to conditions: source organism: Monodelphis domestica.
Assay [21] has as its target HLA-A*02:50. The experiment in a line: IEDB peptide-MHC binding, purified MHC/competitive/fluorescence; filed as Kd, often an IC50 or EC50 that approximates it; ≥ and ≤ were set here for values at or beyond the usual limits of such assays. As to conditions: source organism: Yersinia bercovieri ATCC 43970.
The target of assay [22] is HLA-A*02:11. The assay is described as follows: IEDB peptide-MHC binding, purified MHC/direct/fluorescence; filed as Kd, often an IC50 or EC50 that approximates it; ≥ and ≤ were set here for values at or beyond the usual limits of such assays. As to conditions: source organism: Yersinia enterocolitica subsp. enterocolitica 8081.
The target of assay [23] is HLA-A*02:01. The description is as above. The note with it: source organism: Yersinia enterocolitica.
Assay [24] deals with HLA-A*02:16. The assay is described as above. As to conditions: source organism: Yersinia enterocolitica subsp. enterocolitica 8081.
Assay [25] has as its target HLA-A*02:12. The assay is described as above. The note with it: source organism: Yersinia enterocolitica subsp. enterocolitica 8081.
Assay [26] has as its target HLA-A*69:01. The assay is described as above.
The target in assay [27] is HLA-A*68:02. The experiment in a line: IEDB peptide-MHC binding, purified MHC/competitive/fluorescence; filed as Kd, often an IC50 or EC50 that approximates it; ≥ and ≤ were set here for values at or beyond the usual limits of such assays. The note with it: source organism: Vaccinia virus WR.
The target in assay [28] is HLA-B*39:01. The assay is described as above. As to conditions: source organism: Vaccinia virus WR.
Assay [29] has as its target HLA-B*15:09. Described as above. As to conditions: source organism: Vaccinia virus WR.
Assay [30] addresses HLA-B*08:02. The experiment in a line: IEDB peptide-MHC binding, purified MHC/direct/fluorescence; filed as Kd, often an IC50 or EC50 that approximates it; ≥ and ≤ were set here for values at or beyond the usual limits of such assays. As to conditions: source organism: Variola virus.
Assay [31] has as its target HLA-B*57:01. Described as above. The note with it: source organism: Camelpox virus M-96.
Assay [32] has as its target HLA-A*26:01. The description is as above. As to conditions: source organism: Variola virus.
Assay [33] deals with HLA-A*26:02. Described as above. The note with it: source organism: Variola virus.
Assay [34] addresses HLA-A*11:01. The description is as above. As to conditions: source organism: Camelpox virus M-96.
Assay [35] addresses HLA-B*48:01. The assay is described as above. The note with it: source organism: Camelpox virus M-96.
The target of assay [36] is HLA-B*15:17. Described as above. As to conditions: source organism: Camelpox virus M-96.
For assay [37], the target named is HLA-B*18:01. The assay is described as above. The note with it: source organism: Camelpox virus M-96.
Assay [38] deals with HLA-B*08:01. The assay is described as above. As to conditions: source organism: Variola virus.
Assay [39] concerns the target HLA-B*58:01. Described as above. The note with it: source organism: Camelpox virus M-96.
Assay [40] concerns the target HLA-A*01:01. The assay is described as above. The note with it: source organism: Camelpox virus M-96.
Assay [41] concerns the target HLA-B*07:02. Described as above. As to conditions: source organism: Camelpox virus M-96.
Assay [42] concerns the target HLA-B*08:03. Described as above. The note with it: source organism: Variola virus.
For assay [43], the target named is HLA-B*40:01. The description is as above. The note with it: source organism: Camelpox virus M-96.
The target of assay [44] is HLA-B*27:05. Described as above. The note with it: source organism: Camelpox virus M-96.
The target of assay [45] is HLA-A*31:01. Described as above. As to conditions: source organism: Camelpox virus M-96.
Assay [46] deals with HLA-B*44:02. The assay is described as above. The note with it: source organism: Camelpox virus M-96.

As usually defined, the IC50 is the concentration that inhibits the measured activity by half. High values mean weaker potency in that assay, low ones greater potency in that assay. Consider LEYFQFVKKLL, for which the IC50 in [1] is not below 20 µM; in [2] it was not below 20 µM; in assay [3] it was not below 20 µM; in [4], not below 20 µM; in assay [5], 0.126 µM; in [6], not below 20 µM. Moreover, the IC50 was not below 20 µM in assay [7]; 4.72 µM in assay [8]; 2.4 µM in [9]; not below 20 µM in assay [10]; not below 20 µM in assay [11]; not below 20 µM in assay [12]. For the same sequence, the IC50 in assay [13], in assay [14], in assay [15], in [16], in assay [17] and in assay [18] was not below 20 µM in each case. Moreover, the IC50 in [19] and in assay [20] was not below 20 µM each time.
The term Kd denotes a measure of binding affinity in units of concentration. TLLCGAATA: the Kd came to 0.012 µM in [21]; 0.042 µM in [22]; 0.196 µM in assay [23]; 0.057 µM in assay [24]; 0.021 µM in assay [25]; 0.394 µM in assay [26] (source organism: Yersinia enterocolitica).
Take FENDIDEIL: the Kd in assay [27] was 2.14 µM; in [28], not below 20 µM; in assay [29], not below 20 µM; in [30], not below 20 µM; in assay [31], not below 20 µM; in assay [32] it was not below 20 µM. Besides, the dissociation constant (Kd) in assay [33] was not below 20 µM; in [34] it was not below 20 µM; in [35], 1.2 µM; in assay [36], not below 20 µM; in assay [37] it was 0.122 µM; in assay [38] it was not below 20 µM. For the same sequence, the Kd in assay [39] is not below 20 µM; in assay [40], not below 20 µM; in assay [41], not below 20 µM; in assay [42], not below 20 µM; in [43], 0.0053 µM; in [44], not below 20 µM. Besides, the Kd in assay [45], in assay [26] (source organism: Camelpox virus M-96) and in assay [46] was not below 20 µM each time.

The record behind these values is the Immune Epitope Database (IEDB).
